Reference: US20240083959A1 (published 2024)

T1: recombinant human LPHN2 lectin-olfactomedin-like domain, residues F26-P394 (human, UniProt O95490 26-394)
T1 chain: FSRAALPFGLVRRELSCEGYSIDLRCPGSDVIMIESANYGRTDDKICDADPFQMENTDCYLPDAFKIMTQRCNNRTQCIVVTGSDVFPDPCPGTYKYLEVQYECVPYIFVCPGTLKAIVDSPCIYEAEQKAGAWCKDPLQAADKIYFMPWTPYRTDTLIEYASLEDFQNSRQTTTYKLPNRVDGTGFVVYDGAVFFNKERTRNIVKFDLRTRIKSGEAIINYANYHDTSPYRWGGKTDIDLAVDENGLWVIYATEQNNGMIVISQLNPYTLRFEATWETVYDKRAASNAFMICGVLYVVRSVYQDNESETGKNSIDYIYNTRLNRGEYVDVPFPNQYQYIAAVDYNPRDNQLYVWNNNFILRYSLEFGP

B1: deglycosylated LRG1 (LRG1 treated with PNGase F) (ligand)
chain: VTLSPKDCQVFRSDHGSSISCQPPAEIPGYLPADTVHLAVEFFNLTHLPANLLQGASKLQELHLSSNGLESLSPEFLRPVPQLRVLDLTRNALTGLPPGLFQASATLDTLVLKENQLEVLEVSWLHGLKALGHLDLSGNRLRKLPPGLLANFTLLRTLDLGENQLETLPPDLLRGPLQLERLHLEGNKLQVLGKDLLLPQPDLRYLFLNGNKLARVAAGAFQGLRQLDMLDLSNNSLASVPEGLWASLGQPNWDMRDGFDISGNPWICDQNLSDLYRWLQAQKDKMFSQNDTRCAGPEAVKGQTLLAVAKSQ
modifications: N-linked glycans removed with PNGase F (sites N79, N186, N269, N325 on SEQ ID NO: 1)
B2: DG-LRG1 (ligand)
chain: VTLSPKDCQVFRSDHGSSISCQPPAEIPGYLPADTVHLAVEFFNLTHLPANLLQGASKLQELHLSSNGLESLSPEFLRPVPQLRVLDLTRNALTGLPPGLFQASATLDTLVLKENQLEVLEVSWLHGLKALGHLDLSGNRLRKLPPGLLANFTLLRTLDLGENQLETLPPDLLRGPLQLERLHLEGNKLQVLGKDLLLPQPDLRYLFLNGNKLARVAAGAFQGLRQLDMLDLSNNSLASVPEGLWASLGQPNWDMRDGFDISGNPWICDQNLSDLYRWLQAQKDKMFSQNDTRCAGPEAVKGQTLLAVAKSQ
modifications: N-linked glycans removed with PNGase F (sites N79, N186, N269, N325 on SEQ ID NO: 1)
B3: recombinant human LRG1 (leucine-rich alpha-2 glycoprotein 1), residues V36-Q347, untagged, glycosylated (ligand)
chain: VTLSPKDCQVFRSDHGSSISCQPPAEIPGYLPADTVHLAVEFFNLTHLPANLLQGASKLQELHLSSNGLESLSPEFLRPVPQLRVLDLTRNALTGLPPGLFQASATLDTLVLKENQLEVLEVSWLHGLKALGHLDLSGNRLRKLPPGLLANFTLLRTLDLGENQLETLPPDLLRGPLQLERLHLEGNKLQVLGKDLLLPQPDLRYLFLNGNKLARVAAGAFQGLRQLDMLDLSNNSLASVPEGLWASLGQPNWDMRDGFDISGNPWICDQNLSDLYRWLQAQKDKMFSQNDTRCAGPEAVKGQTLLAVAKSQ
modifications: glycosyl groups at T37 (O-linked), N79, N186, N269 and N325 (N-linked), numbered on SEQ ID NO: 1

Key:
[1] = biological target: T1, recombinant human LPHN2 …; assay: solid-phase binding (ELISA)
LPHN2 Lec = assay: solid-phase binding (ELISA)

Binder | Kd [1] | Kd (LPHN2 Lec)
B1 | 430 nM | –
B2 | – | 1100 nM
B3 | 890 nM | –
